Reference: PMC9886945 (Nature Communications, 2023)

What was measured:
Assay in all cases: cryo-EM structure
[1] = target: Mycobacterium tuberculosis RNA polymerase β' subunit (M. tuberculosis, UniProt P9WGY7); details: both partners purified
[2] = target: T1, Mycobacterium tuberculosis RNA polymerase β subunit (M. tuberculosis, UniProt P9WGY9); details: both partners purified
T1 sequence: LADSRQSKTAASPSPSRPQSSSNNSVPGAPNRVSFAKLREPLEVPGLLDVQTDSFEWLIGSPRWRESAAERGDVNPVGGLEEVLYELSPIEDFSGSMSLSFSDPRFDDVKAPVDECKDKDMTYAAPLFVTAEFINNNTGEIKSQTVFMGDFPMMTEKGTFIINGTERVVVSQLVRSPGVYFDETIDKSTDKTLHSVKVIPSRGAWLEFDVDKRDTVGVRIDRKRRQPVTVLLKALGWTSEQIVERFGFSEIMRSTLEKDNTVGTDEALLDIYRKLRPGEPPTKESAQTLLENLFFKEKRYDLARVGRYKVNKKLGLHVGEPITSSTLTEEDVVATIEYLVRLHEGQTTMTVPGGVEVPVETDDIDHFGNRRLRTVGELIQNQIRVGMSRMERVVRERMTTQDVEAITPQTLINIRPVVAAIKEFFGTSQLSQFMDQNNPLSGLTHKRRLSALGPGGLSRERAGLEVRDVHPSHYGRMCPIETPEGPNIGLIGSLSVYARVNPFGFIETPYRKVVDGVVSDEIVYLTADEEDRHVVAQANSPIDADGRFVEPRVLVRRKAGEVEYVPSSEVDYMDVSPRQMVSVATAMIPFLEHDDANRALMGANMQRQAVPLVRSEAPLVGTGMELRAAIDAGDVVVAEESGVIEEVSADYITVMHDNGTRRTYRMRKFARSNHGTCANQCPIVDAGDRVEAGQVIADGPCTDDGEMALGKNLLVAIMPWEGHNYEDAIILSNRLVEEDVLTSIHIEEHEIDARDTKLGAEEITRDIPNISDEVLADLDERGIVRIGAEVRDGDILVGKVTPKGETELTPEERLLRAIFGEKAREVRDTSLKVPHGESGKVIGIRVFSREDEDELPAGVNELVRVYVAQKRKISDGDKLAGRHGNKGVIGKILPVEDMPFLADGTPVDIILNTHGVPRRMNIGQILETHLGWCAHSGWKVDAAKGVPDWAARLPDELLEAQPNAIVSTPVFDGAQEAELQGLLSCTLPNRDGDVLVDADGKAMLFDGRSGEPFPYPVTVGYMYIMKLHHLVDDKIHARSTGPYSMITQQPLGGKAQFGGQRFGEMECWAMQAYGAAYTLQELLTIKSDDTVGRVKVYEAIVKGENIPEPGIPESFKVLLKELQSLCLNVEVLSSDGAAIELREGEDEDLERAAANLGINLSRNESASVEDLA

cryo-EM structure = target: the molecule itself

Measured: binding result

Sequence of Mycobacterium tuberculosis RNA polymerase β' subunit (P9WGY7 whole entry): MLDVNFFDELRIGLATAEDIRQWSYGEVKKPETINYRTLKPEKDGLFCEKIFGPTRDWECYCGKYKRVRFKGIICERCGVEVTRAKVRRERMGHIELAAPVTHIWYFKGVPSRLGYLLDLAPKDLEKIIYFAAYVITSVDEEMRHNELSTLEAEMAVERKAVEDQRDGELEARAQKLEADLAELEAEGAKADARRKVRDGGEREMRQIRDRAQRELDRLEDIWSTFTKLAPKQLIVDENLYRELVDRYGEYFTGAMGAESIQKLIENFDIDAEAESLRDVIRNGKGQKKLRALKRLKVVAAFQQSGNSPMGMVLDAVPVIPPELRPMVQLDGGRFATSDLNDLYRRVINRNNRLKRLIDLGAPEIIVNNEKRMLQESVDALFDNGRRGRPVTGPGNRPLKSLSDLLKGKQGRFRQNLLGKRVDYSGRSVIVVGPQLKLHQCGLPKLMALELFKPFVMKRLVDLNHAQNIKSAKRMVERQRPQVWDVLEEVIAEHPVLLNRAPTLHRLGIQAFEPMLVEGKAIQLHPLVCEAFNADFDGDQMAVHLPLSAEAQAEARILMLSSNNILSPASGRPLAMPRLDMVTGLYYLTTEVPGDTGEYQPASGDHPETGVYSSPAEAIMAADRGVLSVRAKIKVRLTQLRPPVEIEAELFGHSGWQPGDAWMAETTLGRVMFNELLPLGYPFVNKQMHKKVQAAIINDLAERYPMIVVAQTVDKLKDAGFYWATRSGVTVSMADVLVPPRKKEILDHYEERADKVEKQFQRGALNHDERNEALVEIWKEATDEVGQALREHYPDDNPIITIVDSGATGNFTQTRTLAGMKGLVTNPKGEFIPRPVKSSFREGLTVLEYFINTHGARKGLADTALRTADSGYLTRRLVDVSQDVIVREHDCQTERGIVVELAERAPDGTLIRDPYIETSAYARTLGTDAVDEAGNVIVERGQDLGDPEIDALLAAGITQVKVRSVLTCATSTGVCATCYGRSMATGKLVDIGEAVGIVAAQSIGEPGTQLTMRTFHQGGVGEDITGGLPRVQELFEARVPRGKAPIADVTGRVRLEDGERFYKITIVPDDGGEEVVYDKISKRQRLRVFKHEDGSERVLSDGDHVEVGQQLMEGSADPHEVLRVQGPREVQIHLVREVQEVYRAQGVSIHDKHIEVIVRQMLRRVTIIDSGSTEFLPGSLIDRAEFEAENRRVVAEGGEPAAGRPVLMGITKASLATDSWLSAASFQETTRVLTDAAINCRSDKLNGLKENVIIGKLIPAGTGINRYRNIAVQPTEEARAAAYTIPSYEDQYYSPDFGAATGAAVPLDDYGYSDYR

B1: Mycobacterium tuberculosis σ^B subunit (natural protein)
chain: MADAPTRATTSRVDSDLDAQSPAADLVRVYLNGIGKTALLNAAGEVELAKRIEAGLYAEHLLETRKRLGENRKRDLAAVVRDGEAARRHLLEANLRLVVSLAKRYTGRGMPLLDLIQEGNLGLIRAMEKFDYTKGFKFSTYATWWIRQAITRGMADQSRTIRLPVHLVEQVNKLARIKREMHQHLGREATDEELAAESGIPIDKINDLLEHSRDPVSLDMPVGSEEEAPLGDFIEDAEAMSAENAVIAELLHTDIRSVLATLDEREHQVIRLRFGLDDGQPRTLDQIGKLFGLSRERVRQIERDVMSKLRHGERADRLRSYAS
binds: all assays above
